{"source": "paper PMC2655723", "key": {"[1]": {"target": "Full-length HIV-1 YU2 envelope glycoproteins (HIV-1, strain YU2) (UniProt P35961)"}, "[2]": {"target": "HIV-1 AD8 envelope glycoproteins (HIV-1, strain AD8)"}}}
{"substance": "Four-domain soluble CD4 (domain or fragment)", "values": [{"measurement": "IC50 of sCD4 for inhibition of infection of CD4+CCR5+ Cf2Th cells by recombinant HIV-1(YU2), luciferase activity", "setting": "[1]", "value": 0.012, "unit": "µM"}, {"measurement": "IC50 of sCD4 for inhibition of infection of CD4+CCR5+ Cf2Th cells by recombinant HIV-1(AD8), luciferase activity", "setting": "[2]", "value": 0.08, "unit": "µM"}]}
